Results on 18 molecules are retold here after patent publication US20160176924A1 (UNIVERSITY OF COPENHAGEN, published 2016).

Where two headings read alike, the source gives them in different places. Numbered stars: 1 amine (or outer) side, 2 acyl side, 3 side chain; on linkers, the order of the positions; unused ones are H or OH. Square brackets hold non-standard residues; d marks the D form. Ends that are not written are not given here. * marks the point of attachment. CO(CH2CH2O)13CH2CH2CO = O=C(CCOCCOCCOCCOCCOCCOCCOCCOCCOCCOCCOCCOCCOCCC(=O)[*:2])[*:1]; 5FAM = O=C1OC2(c3ccc(O)cc3Oc3cc(O)ccc32)c2ccc(C(=O)*)cc21; NMeE = CN[C@@H](CCC(=O)O)C(=O)O

In assay [1] the target is T1, HIS-PDZ2 protein (PSD-95 PDZ2, residues 155-249, with tag …) (human, UniProt P78352 155-249). Nature of the assay: ITC. In general terms: ITC needs no label: the signal is the heat of the interaction.
The target of assay [2] is T2, HIS-PDZ1-2 protein (PSD-95 PDZ1-2 tandem, residues 61-249, with tag …) (human, UniProt P78352 61-249). Nature of the assay: ITC.
In assay [3] the target is T2, HIS-PDZ1-2 protein (PSD-95 PDZ1-2 …). In words: FP competition, fluorescent NR2B probe; exact Ki not calculable.
Assay [4] concerns the target T1, HIS-PDZ2 protein (PSD-95 PDZ2, residues …). Nature of the assay: FP competition, fluorescent NR2B probe.
Assay [5] concerns the target T3, HIS-PDZ3 protein (PSD-95 PDZ3, residues 309-401, with tag …) (human, UniProt P78352 309-401). Nature of the assay: FP competition: fluorescent CRIPT probe (50 nM) on PDZ3 (5 µM).
Assay [6] addresses T2, HIS-PDZ1-2 protein (PSD-95 PDZ1-2 …). In words: FP competition, fluorescent NR2B probe; exact Ki not calculable. The source holds these as a separate data set.
Assay [7] addresses T1, HIS-PDZ2 protein (PSD-95 PDZ2, residues …). Nature of the assay: FP competition, fluorescent NR2B probe. This is another data set of the same source.
In assay [8] the target is T4, HIS-PDZ1-2 with tryptophan instead of isoleucine (PDZ1-2 I195W) (human, UniProt P78352 61-249).
T4 construct: Used in the stopped-flow fluorimetry of ligand 74; also called PDZ1-21195W (so in the source)
In words: stopped-flow fluorimetry, Trp fluorescence; stopped-flow fluorescence titration, not FP.

In assay [9] the target is T3, HIS-PDZ3 protein (PSD-95 PDZ3, residues …). Nature of the assay: FP competition, fluorescent CRIPT probe.
Assay [10] deals with T1, HIS-PDZ2 protein (PSD-95 PDZ2, residues …). Nature of the assay: FP competition, alanine scan.
The target is the same in assay [11]. In words: FP competition assay (Ki), fluorescent NR2B probe displaced from the PDZ domain; bar chart.
Assay [12] addresses T5, HIS-PDZ1 protein (PSD-95 PDZ1, residues 61-151, with tag …) (human, UniProt P78352 61-151).
T5 construct: expressed in E. coli
The description is as above.

The target in assay [13] is T3, HIS-PDZ3 protein (PSD-95 PDZ3, residues …). In words: FP saturation binding.
In assay [14] the target is T1, HIS-PDZ2 protein (PSD-95 PDZ2, residues …). In words: FP competition, fluorescent NR2B probe. This is another data set of the same source.
Assay [15] has as its target T5, HIS-PDZ1 protein (PSD-95 PDZ1, residues …). Nature of the assay: FP competition, fluorescent NR2B probe.
Assay [16] deals with T1, HIS-PDZ2 protein (PSD-95 PDZ2, residues …). Nature of the assay: FP competition assay (Ki), fluorescent NR2B probe displaced from the PDZ domain; bar chart. This is another data set of the same source.
In assay [17] the target is T5, HIS-PDZ1 protein (PSD-95 PDZ1, residues …). The assay is described as above. This is another data set of the same source.
The target of assay [18] is T1, HIS-PDZ2 protein (PSD-95 PDZ2, residues …). Nature of the assay: FP competition, fluorescent NR2B probe. The source holds these as a separate data set.
In assay [19] the target is T5, HIS-PDZ1 protein (PSD-95 PDZ1, residues …). Nature of the assay: FP competition, fluorescent NR2B probe. This is another data set of the same source.
In assay [20] the target is T2, HIS-PDZ1-2 protein (PSD-95 PDZ1-2 …). Nature of the assay: FP competition, fluorescent NR2B probe.
Assay [21] shares this target. In words: FP competition: displaces fluorescent NR2B probe (50 nM) from PDZ1-2 (3 µM).
Assay [22] concerns the target T5, HIS-PDZ1 protein (PSD-95 PDZ1, residues …). Nature of the assay: FP competition, fluorescent NR2B probe. The source holds these as a separate data set.
Assay [23] addresses T2, HIS-PDZ1-2 protein (PSD-95 PDZ1-2 …). Nature of the assay: FP competition, fluorescent NR2B probe. The source holds these as a separate data set.
For assay [24] the target is unchanged. Nature of the assay: FP competition: displaces fluorescent NR2B probe (50 nM) from PDZ1-2 (3 µM). The source holds these as a separate data set.
In assay [25] the target is T5, HIS-PDZ1 protein (PSD-95 PDZ1, residues …). Nature of the assay: FP competition: displaces fluorescent NR2B probe (50 nM) from PDZ1 (20 µM).
Assay [26] has as its target T1, HIS-PDZ2 protein (PSD-95 PDZ2, residues …). Nature of the assay: FP competition: displaces fluorescent NR2B probe (50 nM) from PDZ2 (3 µM).
Assay [27] has as its target T2, HIS-PDZ1-2 protein (PSD-95 PDZ1-2 …). Nature of the assay: ITC / FP.
The target is the same in assay [28]. Nature of the assay: ITC; dimeric ligand, two IETAV joined by a PEG4 linker (X = 4).

Take {PEG4‑diacid}-IESDV (also: dimer: two peptides N-terminally joined via PEG4-diacid, Dimeric ligand) [(IESDV)2PEG4 (78)]: the Kd (commonly a measure of binding affinity in units of concentration) stood at 3.3 µM in [1] and 0.032 µM in assay [2]. Also, the figures for the Ki in assay [3] and in [4] were approximately 0.1 µM and 2.7 µM, respectively.

As for {PEG12‑diacid}-IESDV (also: dimer: two peptides N-terminally joined via PEG12-diacid, Dimeric ligand) [(IESDV)2PEG12 (74)], the binding result in assay [5] is “no binding (tested: log(Conc/M) about -3.3)”. This molecule yielded a Kd in [2] of 0.09 µM. The Ki (as a rule, the dissociation constant of the complex between target and ligand, obtained from inhibition or displacement) was approximately 0.1 µM in [3]; approximately 0.1 µM in assay [6]; 2.8 µM in assay [7]; 3.1 µM in [4]; approximately 0.1 µM in assay [8].

In the case of IESAV [Compound 13 (IESDV with Asp P^-1 replaced by Ala)], the “fold higher Ki than CRIPT” value in assay [9] was more than 30 fold.

Regarding IEADV [Compound 12 (IESDV with Ser P^-2 replaced by Ala)], in [10], the “fold increase in Ki on Ala substitution of Ser (P^-2) in pentapeptide (7)” value came to 7 fold.

B1: SSIESDV (5) (peptide)
peptide: SSIESDV
notes: N-terminal truncation of the NR2B peptide (1)
In the case of B1, the binding result in assay [11] and in assay [12] was “binds” each time.

In turn, 5FAM-KSGLDTKNYKQTSV (also: entry also covers Cy5-CRIPT: CSG linker, Cy5-maleimide on Cys, also called 5-FAM-CRIPT) [5-FAM/Cy5-CRIPT] showed a dissociation constant (Kd) in assay [13] of 3.5 µM.

Turning to KQTSV [truncated CRIPT pentapeptide (KQTSV)], in [9], the “fold reduction in Ki (so in the source) compared with CRIPT peptide (2)” value came to 14 fold.

Regarding [NMeE]SDV [Compound 18 (ESDV with N-methylated Glu at P^-3)], the “fold higher Ki compared to peptide 1” value was determined as 3.7 fold in assay [14] and 1.3 fold in assay [15].

Regarding ESNV [Compound 24 (ESDV with Asp P^-1 replaced by Asn)], the binding result in [14] and in [15] was “binds” throughout.

In the case of ETQV (number 32 only on the sheet) [ETQV (32)], the binding result in assay [16] and in [17] was “binds” throughout.

For the molecule [NMeE]TNV [Compound 38 (EMeTXV with X = Asn)], the binding result in [16] and in assay [17] was “binds” in each case.

For the molecule [NMeE]TAV (also called N-Methyl-ETAV (40)) [EMeTAV (40)], the Ki is approximately 79 µM in assay [9], 8.9 µM in [18] and 11 µM in assay [19].

As to ETNV (number 31 only on the sheet) [ETNV (31)], the binding result in [16] and in assay [17] was “binds” throughout.

B2: SIESDV (6) (peptide)
peptide: SIESDV
notes: as for B1
On to B2, for which the binding result in assay [11] and in assay [12] was “binds” throughout.

{PEG0‑diacid}-IESDV (also: dimer: two peptides N-terminally joined via PEG0-diacid, Dimeric ligand) [Compound 81 (IESDV dimerized with PEG0-diacid)]: in assay [2], binding was put at a Kd of 1.1 µM. In addition, the Ki was 3.1 µM in assay [4] and 1.5 µM in assay [20]. Also, the “IC50 (read off the curve)” value in assay [21] was approximately 5 µM.

B3: (GE[N-Cyclohexylethyl]TDV)2PEG12 (75) (peptide)
peptide: {CO(CH2CH2O)13CH2CH2CO}-GETDV-OH
modifications: not fully specified (residue 2); printed as (GE[N-Cyclohexylethyl]TDV)2PEG12 (75); also: dimer: two peptides N-terminally joined via PEG12-diacid
notes: Dimeric ligand; also called (GE[R]TDV)2-PEG12 (75)
With B3, in [5], the binding result is reported as “no binding (tested: log(Conc/M) about -3.6)”. Further, the Ki in assay [7] came to 55 µM; in assay [22] it was 83 µM; in [23] it was 5.5 µM.

For IESDV (also called pentapeptide (7)) [IESDV (7)], the “IC50 (read off the curve)” value in [24] is approximately 10 µM; in [25], approximately 50 µM; in [26], approximately 9 µM; in assay [21], approximately 9 µM. Besides, in assay [1], the Kd was 2.6 µM. This molecule also yielded a Ki in assay [4] of 3.1 µM.

B4: (IETAV)2PEG4 (83) (peptide)
peptide: IETAV
modifications: also: dimer: two peptides joined at N-terminal amines by amide bonds through a PEG4-diacid linker
notes: Dimeric ligand
Consider B4, for which the “fold increase in affinity compared to monomeric IETAV (82)” value in assay [27] was found to be 176 fold. Further, the Kd in [28] came out at 0.011 µM. Moreover, the Ki in assay [3] is approximately 0.1 µM; in [4], 1.1 µM.
